Reference: the supplement of paper PMC9170038

Tested on: MS2 coat protein
Assay: apparent KD of MS2 coat protein; higher = weaker reporter binding
Conditions: Eterna round: R107
Description: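 RNA-MaP round R107: designed RNA switches with theophylline, tryptophan, arginine or FMN aptamers are transcribed on-chip within common flanks. They are titrated with SNAP-549-labelled MS2 coat protein in RNA-MaP buffer (100 mM Tris pH 7.5, 80 mM KCl, 4 mM MgCl2), without ligand or with the indicated ligand. Median apparent KD per design.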

[1] = input ligand: theophylline 20 uM
[2] = input ligand: theophylline 2 mM
[3] = input ligand: tryptophan 2.4 mM

AUGCUUAUCAGAAGGAGCGUCAUUAACAUGAGGAUCACCCAUGUAACAUUGAAUUCGAUGAGACAGGUAGGUCGCUGAAUAGUAA [SS-ArgB27]
apparent KD of MS2 coat protein (input ligand: arginine 13.2 mM): 28 nM
apparent KD of MS2 coat protein (input ligand: none): 45.1 nM
apparent KD of MS2 coat protein [1]: 51.5 nM
apparent KD of MS2 coat protein [2]: 41.3 nM
apparent KD of MS2 coat protein [3]: 37.5 nM

CCUCGGGACCGAAGGAGCGAGAUAACAACAAUGGGUCUCUACACAUGAGGAUCACCCAUGUCUCAGGUAGGUCGCGGUACCUUAG [Exclusion Arginine B GF23]
apparent KD of MS2 coat protein (input ligand: arginine 13.2 mM): 137 nM
apparent KD of MS2 coat protein (input ligand: none): 261 nM
apparent KD of MS2 coat protein [1]: 287 nM
apparent KD of MS2 coat protein [2]: 491 nM
apparent KD of MS2 coat protein [3]: 238 nM

UUUAUAUAGACGGCCGCCACUGGAAUUAAUACAUGAGGAUCACCCAUGUAUAGAGAAUAAUAAUACAGGACCGGGUCUUCAUGAU [SS Tryp B Tesla 1.1]
apparent KD of MS2 coat protein (input ligand: arginine 13.2 mM): 28.3 nM
apparent KD of MS2 coat protein [1]: 34.2 nM
apparent KD of MS2 coat protein [2]: 33.7 nM

UUUAGUCAAUCGGCCGCCACUGACAUGAGGAUCACCCAUGUAGGUAAGGAUCAACCUCGAAAGUACAGGACCGGGAUUCGCCUCU [theeternabot_exclusion_MS2_Trp_B_45]
apparent KD of MS2 coat protein (input ligand: arginine 13.2 mM): 51.7 nM
apparent KD of MS2 coat protein [1]: 67.6 nM
apparent KD of MS2 coat protein [2]: 65 nM

CACAUGAGGAUCACCCAUGUCUGAACUGAAGGAGCGCUAAACAAGGCAGGUAGGUCGCGGAAUUUUGUGUGCAUAUGCAUAUGGG [9.N]
apparent KD of MS2 coat protein (input ligand: arginine 13.2 mM): 21.6 nM
apparent KD of MS2 coat protein (input ligand: none): 24.5 nM
apparent KD of MS2 coat protein [1]: 36.3 nM
apparent KD of MS2 coat protein [2]: 26.9 nM
apparent KD of MS2 coat protein [3]: 24.8 nM

UACAUGAGGAUCACCCAUGUAUAACCGGUACGAGGACCGGUACGGCCGCCACUCGAAACAUGAGGAUCACCCAUGUGCUACUAUU [Same State Trypophan A GF 22]
apparent KD of MS2 coat protein (input ligand: arginine 13.2 mM): 25.3 nM
apparent KD of MS2 coat protein [1]: 36.4 nM
apparent KD of MS2 coat protein [2]: 35.1 nM

CGGCCCUCACUUGAGGAACACCCAAGUGAUACCAGCCUGGAAACAGGCCCUUGGCAGCACUAGGUCAUCAAAGAUGACCAAGCCG [TheoAX 29 #OpenEnded #AlternativeMS2]
apparent KD of MS2 coat protein (input ligand: arginine 13.2 mM): 17.7 nM
apparent KD of MS2 coat protein (input ligand: none): 23.8 nM
apparent KD of MS2 coat protein [1]: 42.8 nM
apparent KD of MS2 coat protein [2]: 373 nM
apparent KD of MS2 coat protein [3]: 23.1 nM

AGCUCGCAUCCUCAAAGCGUCAAAGACGCACGAGGACCGGUACGGCCGCCACUCGACCUGAGGAUCACCCUGGUCUAAGCGAGCA [TrypAX 9 #SwitchBubble #AlternativeMS2 #MS2Late #CuTurnoff]
apparent KD of MS2 coat protein (input ligand: arginine 13.2 mM): 29.7 nM
apparent KD of MS2 coat protein (input ligand: none): 36.2 nM
apparent KD of MS2 coat protein [1]: 49.2 nM
apparent KD of MS2 coat protein [2]: 48.8 nM
apparent KD of MS2 coat protein [3]: 381 nM

ACAUGAGGAUCACCCAUGUGCCGUCUUGAUACCAGACCCGAAGUAGUCCCUUGGCAGCAACUACGUGACGGUCGCCCAUGUGUAG [rremullin]
apparent KD of MS2 coat protein (input ligand: arginine 13.2 mM): 14 nM
apparent KD of MS2 coat protein [1]: 20.4 nM
apparent KD of MS2 coat protein [3]: 14.7 nM

GAGUAGAGGACGGCCGCCACUAAACAUGAGGAUCACCCAUGUCGUGAUCCGUUACCUAGGGUAGAUAGGACCGGGUCAUGUAGUC [Exclusion Tryptophan B GF 17]
apparent KD of MS2 coat protein (input ligand: arginine 13.2 mM): 47.7 nM
apparent KD of MS2 coat protein [1]: 65.8 nM
apparent KD of MS2 coat protein [2]: 84.7 nM

UUGGGUUUGCGAAGGAGCGGGAAAUAUAUAUAUAUAAUCCUAACAUGAGGAUCACCCAUGUCCCAGGUAGGUCGCGCGGGUUUGG [12.M]
apparent KD of MS2 coat protein (input ligand: arginine 13.2 mM): 42 nM
apparent KD of MS2 coat protein (input ligand: none): 59.5 nM
apparent KD of MS2 coat protein [1]: 61.9 nM
apparent KD of MS2 coat protein [2]: 54.3 nM
apparent KD of MS2 coat protein [3]: 51.2 nM

GAAGAUCCGUAAGAUACCAGUGCAGAUCGGCACAUGAGGAUCACCCAUGUAAAGCAAGAACACCCUUGGCAGCUUUCGUAACAAC [theeternabot_sameState_MS2_Theo_B_15]
apparent KD of MS2 coat protein (input ligand: arginine 13.2 mM): 66.9 nM
apparent KD of MS2 coat protein [1]: 64.8 nM
apparent KD of MS2 coat protein [3]: 109 nM

GAUCCUCAUACGGAUACCAGCGAAUAACAUGAGGAUCACCCAUGUAAUAAAGAAAAUAAAUGCCCUUGGCAGCCGAAUAGAUAGU [Same State Theophylline B GF 1]
apparent KD of MS2 coat protein (input ligand: arginine 13.2 mM): 36.2 nM
apparent KD of MS2 coat protein [1]: 137 nM
apparent KD of MS2 coat protein [3]: 91.1 nM

AAGACAUGAGGAUCACCCAUGUCGUGUGAACGAGGACCGGUACGGCCGCCACUCGUUUGAAAAUAAACGAAUGCGGCCUGGGAAA [Exclusion Tryp A GF1]
apparent KD of MS2 coat protein (input ligand: arginine 13.2 mM): 11.1 nM
apparent KD of MS2 coat protein [1]: 13.4 nM
apparent KD of MS2 coat protein [2]: 12.3 nM

AUUAACUGGUAAGAUACCAGAGUCGGGAUCUACAUGAGGAUCACCCAUGUUCUAAAGUCGCUCCCUUGGCAGCUUCAAUGAGUCG [theeternabot_sameState_MS2_Theo_B_27]
apparent KD of MS2 coat protein (input ligand: arginine 13.2 mM): 23.3 nM
apparent KD of MS2 coat protein [1]: 45.9 nM
apparent KD of MS2 coat protein [3]: 34 nM

AAAAUCCUACCUGAGGAUCACCCGGGUGAAGGAGCGCCCGAAAGGGCAGGUAGGUCGCACCUGAGGAUCACCCUGGUAACCUAAA [ArgEX 12 #DoubleMS2 #OpenEnded #AlternativeMS2]
apparent KD of MS2 coat protein (input ligand: arginine 13.2 mM): 41.7 nM
apparent KD of MS2 coat protein (input ligand: none): 179 nM
apparent KD of MS2 coat protein [1]: 187 nM
apparent KD of MS2 coat protein [2]: 454 nM
apparent KD of MS2 coat protein [3]: 159 nM

AUCGUACCUGAGGAUACCAGCAUGUGAUCAUAACAUGAGGAUCACCCAUGUAAUCAGUGAUGCCCUUGGCAGCUUGAUCGGUACA [Same State - Theophylline B (Freestyle 11)]
apparent KD of MS2 coat protein (input ligand: arginine 13.2 mM): 53.4 nM
apparent KD of MS2 coat protein [1]: 83.6 nM
apparent KD of MS2 coat protein [3]: 63.8 nM

CCUUAAUAUAGAAGGAGCGCGCUAACAUGAGGAUCACCCAUGUAAAGGGUUUUGGGCUUAGCGCAGGUAGGUCGCUAUAAGAACC [Arg B Ex t2]
apparent KD of MS2 coat protein (input ligand: arginine 13.2 mM): 60.1 nM
apparent KD of MS2 coat protein (input ligand: none): 106 nM
apparent KD of MS2 coat protein [1]: 95 nM
apparent KD of MS2 coat protein [2]: 127 nM
apparent KD of MS2 coat protein [3]: 93.9 nM

GAUUUUACAAAAGUAAAAUCAGUGGGUGAACGAGGACCGGUACGGCCGCCACUCGGACAUGAGGAUCACCCAUGUCCAUGUGAAA [AstrosExyTryA#21]
apparent KD of MS2 coat protein (input ligand: arginine 13.2 mM): 17.1 nM
apparent KD of MS2 coat protein (input ligand: none): 15.7 nM
apparent KD of MS2 coat protein [1]: 18.4 nM
apparent KD of MS2 coat protein [2]: 20.6 nM
apparent KD of MS2 coat protein [3]: 61.9 nM

GGAGCUACGUCGGCCGCCACUAGCGGAUAUUACGUGUACAUGAGGAUCACCCAUGUAAUACGGUUUAGGACCGGGACGUAGCUCC [Lizard]
apparent KD of MS2 coat protein (input ligand: arginine 13.2 mM): 15.6 nM
apparent KD of MS2 coat protein [1]: 22.4 nM
apparent KD of MS2 coat protein [2]: 20.6 nM

GUCUCAGACCGAGAUACCAGCUGGGUUUCCCACAUGAGGAUCACCCAUGUAUUCAGAUUAAGCCCUUGGCAGCUCAUCUAGGUCC [theeternabot_sameState_MS2_Theo_B_44]
apparent KD of MS2 coat protein (input ligand: arginine 13.2 mM): 21.8 nM
apparent KD of MS2 coat protein [1]: 20.6 nM
apparent KD of MS2 coat protein [3]: 16.6 nM

UCAGUGCAAGGAAGGAGCGGGUACAUGAGGAUCACCCAUGUGCAAGUGGUGAGCGUUUGUGCCCAGGUAGGUCGCCUAGCCUGGU [XArg-B18]
apparent KD of MS2 coat protein (input ligand: arginine 13.2 mM): 507 nM
apparent KD of MS2 coat protein (input ligand: none): 125 nM
apparent KD of MS2 coat protein [1]: 172 nM
apparent KD of MS2 coat protein [2]: 179 nM
apparent KD of MS2 coat protein [3]: 159 nM

ACAUGAGGAUCACCCAUGUCUGCCACUGAUACCAGCGGAUGCCAACGCCCUUGGCAGCAGAACAUGAGGAUCACCCAUGUAGGCA [Same State Theophylline A GF25]
apparent KD of MS2 coat protein (input ligand: arginine 13.2 mM): 99.5 nM
apparent KD of MS2 coat protein [1]: 303 nM
apparent KD of MS2 coat protein [3]: 297 nM

UCGGGCCUUCUUUCUUGGCCCGUUACAGAAGGAGCGUCGGAAAUGACAGGUAGGUCGCUGAGAACAUGAGGAUCACCCAUGUAUU [SSAA #14]
apparent KD of MS2 coat protein (input ligand: arginine 13.2 mM): 16.8 nM
apparent KD of MS2 coat protein (input ligand: none): 26.4 nM
apparent KD of MS2 coat protein [1]: 28.9 nM
apparent KD of MS2 coat protein [2]: 25.1 nM
apparent KD of MS2 coat protein [3]: 22.1 nM

CUACAUUUGUAGAAACCGGUCAACAAUAUUCGAGGACCGGUACGGCCGCCACUCGUAUAAUUUAAUACAUGAGGAUCACCCAUGU [Tryptophan A 4]
apparent KD of MS2 coat protein (input ligand: arginine 13.2 mM): 14.8 nM
apparent KD of MS2 coat protein [1]: 18.2 nM
apparent KD of MS2 coat protein [2]: 17.1 nM

GGACAUGCAGGAAGGAGCGACACGCAGAAACUGCAAAAUCCUCCACACGAGGAUCACCCGUGUCAGGUAGGUCGCCUGCAUGUCG [ArgXB 15 #Zipper #MS2Left #StaticStem #Blueprint]
apparent KD of MS2 coat protein (input ligand: arginine 13.2 mM): 88.8 nM
apparent KD of MS2 coat protein (input ligand: none): 73.3 nM
apparent KD of MS2 coat protein [1]: 140 nM
apparent KD of MS2 coat protein [2]: 127 nM
apparent KD of MS2 coat protein [3]: 110 nM

AACAUGAGGAUCACCCAUGUUGUAAGGGAAGGAGCGCCUAAUCAGGCAGGUAGGUCGCCCAACAUGAGGAUCACCCAUGUUGUAU [Exclusion Arginine A 2]
apparent KD of MS2 coat protein (input ligand: arginine 13.2 mM): 38.9 nM
apparent KD of MS2 coat protein (input ligand: none): 75.3 nM
apparent KD of MS2 coat protein [1]: 89.2 nM
apparent KD of MS2 coat protein [2]: 66.9 nM
apparent KD of MS2 coat protein [3]: 76.5 nM

AGCACUGUGACGGCCGCCACUAUAUUAGGGUGGUAAGGUUCAUAAAUACAUGAGGAUCACCCAUGUAGGACCGGGUCUCAGUGCA [Omei Trp Exc B A v2]
apparent KD of MS2 coat protein (input ligand: arginine 13.2 mM): 11.8 nM
apparent KD of MS2 coat protein (input ligand: none): 12.6 nM
apparent KD of MS2 coat protein [1]: 11 nM
apparent KD of MS2 coat protein [2]: 13.5 nM
apparent KD of MS2 coat protein [3]: 17.1 nM

AAAUGAGGAUCACCCAUGUAACAACGGGAAGGAGCGCCAAACAAGGCAGGUAGGUCGCCCACAUGAGGAUCACCCAUGUGUUGGG [Exclusion Arginine A GF 28]
apparent KD of MS2 coat protein (input ligand: arginine 13.2 mM): 89 nM
apparent KD of MS2 coat protein (input ligand: none): 137 nM
apparent KD of MS2 coat protein [1]: 105 nM
apparent KD of MS2 coat protein [2]: 166 nM
apparent KD of MS2 coat protein [3]: 177 nM
